Non-standard residues stand in square brackets, D forms with d. No end group written: not given here. *: point of attachment. FITC = O=C1OC2(c3ccc(O)cc3Oc3cc(O)ccc32)c2ccc(NC(=S)*)cc21; pS = N[C@@H](COP(=O)(O)O)C(=O)O
B1: FITC-pKID R135A (peptide, UniProt P15337-1 116-146, looked up)
peptide: {FITC}-DSVTDSQKRREILSRRP[pS]YAKILNDLSSDAP
notes: source: synthetic peptide, bought: Biomatik
B2: FITC-pKID R135G (peptide, UniProt P15337-1 116-146, looked up)
peptide: {FITC}-DSVTDSQKRREILSRRP[pS]YGKILNDLSSDAP
notes: also called A135G; source: synthetic peptide, bought: Biomatik
B3: FITC-pKID P132A (peptide, UniProt P15337-1 116-146, looked up)
peptide: {FITC}-DSVTDSQKRREILSRRA[pS]YRKILNDLSSDAP
notes: as for B1
B4: FITC-pKID P132G (peptide, UniProt P15337-1 116-146, looked up)
peptide: {FITC}-DSVTDSQKRREILSRRG[pS]YRKILNDLSSDAP
notes: also called A132G; source: synthetic peptide, bought: Biomatik
B5: FITC-pKID T119G (peptide, UniProt P15337-1 116-146, looked up)
peptide: {FITC}-DSVGDSQKRREILSRRP[pS]YRKILNDLSSDAP
notes: the peptide has Gly in place of the natural Thr119; also called A119G; source: synthetic peptide, bought: Biomatik
B6: FITC-pKID E126A (peptide, UniProt P15337-1 116-146, looked up)
peptide: {FITC}-DSVTDSQKRRAILSRRP[pS]YRKILNDLSSDAP
notes: as for B1
B7: FITC-pKID S143A (peptide, UniProt P15337-1 116-146, looked up)
peptide: {FITC}-DSVTDSQKRREILSRRP[pS]YRKILNDLSADAP
notes: as for B1
B8: FITC-pKID K136G (peptide, UniProt P15337-1 116-146, looked up)
peptide: {FITC}-DSVTDSQKRREILSRRP[pS]YRGILNDLSSDAP
notes: also called A136G; source: synthetic peptide, bought: Biomatik
B9: FITC-pKID T119A (peptide, UniProt P15337-1 116-146, looked up)
peptide: {FITC}-DSVADSQKRREILSRRP[pS]YRKILNDLSSDAP
notes: as for B1
B10: FITC-pKID E126G (peptide, UniProt P15337-1 116-146, looked up)
peptide: {FITC}-DSVTDSQKRRGILSRRP[pS]YRKILNDLSSDAP
notes: also called A126G; source: synthetic peptide, bought: Biomatik
B11: FITC-pKID S143G (peptide, UniProt P15337-1 116-146, looked up)
peptide: {FITC}-DSVTDSQKRREILSRRP[pS]YRKILNDLSGDAP
notes: the text prints S143G; also called A143G; source: synthetic peptide, bought: Biomatik
B12: FITC-pKID K136A (peptide, UniProt P15337-1 116-146, looked up)
peptide: {FITC}-DSVTDSQKRREILSRRP[pS]YRAILNDLSSDAP
notes: as for B1
B13: FITC-KID, not phosphorylated at Ser133 (CREB residues 116-146) (peptide, UniProt P15337-1 116-146, looked up)
peptide: {FITC}-DSVTDSQKRREILSRRPSYRKILNDLSSDAP
notes: 'pSer to Ser' in the text; also called ∆pS133; pS133S; source: synthetic peptide, bought: Biomatik
B14: FITC-pKID wild-type (CREB residues 116-146, phosphorylated at Ser133) (peptide, UniProt P15337-1 116-146, looked up)
peptide: {FITC}-DSVTDSQKRREILSRRP[pS]YRKILNDLSSDAP
notes: also called wtFITCpKID; source: synthetic peptide, bought: Biomatik
B15: FITC-pKID R131A (peptide, UniProt P15337-1 116-146, looked up)
peptide: {FITC}-DSVTDSQKRREILSRAP[pS]YRKILNDLSSDAP
notes: as for B1
B16: FITC-pKID I137A (peptide, UniProt P15337-1 116-146, looked up)
peptide: {FITC}-DSVTDSQKRREILSRRP[pS]YRKALNDLSSDAP
notes: as for B1
B17: FITC-pKID L128A (peptide, UniProt P15337-1 116-146, looked up)
peptide: {FITC}-DSVTDSQKRREIASRRP[pS]YRKILNDLSSDAP
notes: as for B1
B18: FITC-pKID R124A (peptide, UniProt P15337-1 116-146, looked up)
peptide: {FITC}-DSVTDSQKAREILSRRP[pS]YRKILNDLSSDAP
notes: as for B1
B19: FITC-pKID L138A (peptide, UniProt P15337-1 116-146, looked up)
peptide: {FITC}-DSVTDSQKRREILSRRP[pS]YRKIANDLSSDAP
notes: as for B1
B20: FITC-pKID S121A (peptide, UniProt P15337-1 116-146, looked up)
peptide: {FITC}-DSVTDAQKRREILSRRP[pS]YRKILNDLSSDAP
notes: as for B1
B21: FITC-pKID R125A (peptide, UniProt P15337-1 116-146, looked up)
peptide: {FITC}-DSVTDSQKRAEILSRRP[pS]YRKILNDLSSDAP
notes: as for B1
B22: FITC-pKID S142A (peptide, UniProt P15337-1 116-146, looked up)
peptide: {FITC}-DSVTDSQKRREILSRRP[pS]YRKILNDLASDAP
notes: as for B1
B23: FITC-pKID D140A (peptide, UniProt P15337-1 116-146, looked up)
peptide: {FITC}-DSVTDSQKRREILSRRP[pS]YRKILNALSSDAP
notes: as for B1
B24: FITC-pKID Y134A (peptide, UniProt P15337-1 116-146, looked up)
peptide: {FITC}-DSVTDSQKRREILSRRP[pS]ARKILNDLSSDAP
notes: as for B1
B25: FITC-pKID I137A (peptide, UniProt P15337-1 116-146, looked up)
peptide: {FITC}-DSVTDSQKRREILSRRP[pS]YRKALNDLSSDAP
notes: as for B1
B26: FITC-pKID Y134A (peptide, UniProt P15337-1 116-146, looked up)
peptide: {FITC}-DSVTDSQKRREILSRRP[pS]ARKILNDLSSDAP
notes: as for B1
B27: FITC-pKID L128A (peptide, UniProt P15337-1 116-146, looked up)
peptide: {FITC}-DSVTDSQKRREIASRRP[pS]YRKILNDLSSDAP
notes: as for B1
B28: FITC-pKID L138A (peptide, UniProt P15337-1 116-146, looked up)
peptide: {FITC}-DSVTDSQKRREILSRRP[pS]YRKIANDLSSDAP
notes: as for B1

target: T1, KIX domain of CBP (UniProt P45481 586-665); assay: stopped-flow fluorescence (association kinetics) + dissociation kinetics by competition; KdKin calculated as kdiss/kass,fast; details: both partners purified
T1 sequence (P45481 586-665): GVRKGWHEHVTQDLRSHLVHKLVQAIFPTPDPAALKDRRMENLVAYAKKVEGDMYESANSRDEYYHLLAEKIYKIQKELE

| Molecule | Kd [nM] |
| --- | --- |
| B1 | 240 ± 20 |
| B2 | 1260 ± 70 |
| B3 | 130 ± 10 |
| B4 | 390 ± 10 |
| B5 | 90 ± 10 |
| B6 | 90 ± 10 |
| B7 | 70 ± 10 |
| B8 | 1270 ± 250 |
| B9 | 120 ± 10 |
| B10 | 280 ± 30 |
| B11 | 190 ± 20 |
| B12 | 90 ± 10 |

target: T1, KIX domain of CBP; assay: stopped-flow fluorescence (association kinetics); pseudo-first order conditions with KIX in excess over FITC-pKID; biphasic; kass,fast = gradient of the observed fast rate against KIX concentration; details: both partners purified

| Molecule | kon [M⁻¹ s⁻¹] |
| --- | --- |
| B13 | 7.6e+06 |
| B14 | 7.3e+06 |
| B15 | 9.5e+06 |
| B16 | 4.5e+06 |
| B17 | 7.9e+06 |
| B18 | 8.4e+06 |
| B19 | 2.8e+06 |
| B20 | 6.9e+06 |
| B21 | 6.3e+06 |
| B22 | 1.13e+07 |
| B23 | 5.3e+06 |

target: T1, KIX domain of CBP; assay: dissociation kinetics by competition; FITC-pKID displaced from KIX by unlabeled competitor cMybTAD; kdiss = asymptote of the observed dissociation rate against competitor concentration; details: both partners purified

| Molecule | koff [s⁻¹] |
| --- | --- |
| B1 | 2.5 |
| B2 | 10.1 |
| B3 | 0.99 |
| B4 | 3.22 |
| B5 | 0.67 |
| B6 | 0.97 |
| B7 | 0.71 |
| B8 | 10.5 |
| B9 | 0.88 |
| B10 | 2.09 |
| B11 | 1.2 |
| B12 | 0.94 |

target: T1, KIX domain of CBP; assay: stopped-flow fluorescence (association kinetics) + dissociation kinetics by competition; KdKin calculated as kdiss/kass,fast; details: both partners purified; remark: another data set of the same source

| Molecule | Kd [nM] |
| --- | --- |
| B13 | 7500 ± 1300 |
| B14 | 110 ± 20 |
| B15 | 810 ± 140 |
| B16 | 9730 ± 1920 |
| B17 | 2000 ± 160 |
| B18 | 60 ± 20 |
| B19 | 4730 ± 1920 |
| B20 | 100 ± 20 |
| B21 | 340 ± 30 |
| B22 | 70 ± 10 |
| B23 | 390 ± 50 |

target: T1, KIX domain of CBP; assay: stopped-flow fluorescence (association kinetics); pseudo-first order conditions with KIX in excess over FITC-pKID; biphasic; kass,fast = gradient of the observed fast rate against KIX concentration; details: both partners purified; remark: another data set of the same source

| Molecule | kon [M⁻¹ s⁻¹] |
| --- | --- |
| B1 | 1.05e+07 |
| B2 | 8e+06 |
| B3 | 7.7e+06 |
| B4 | 8.3e+06 |
| B5 | 7.1e+06 |
| B6 | 1.05e+07 |
| B7 | 9.7e+06 |
| B8 | 8.3e+06 |
| B9 | 7.3e+06 |
| B10 | 7.6e+06 |
| B11 | 6.3e+06 |
| B12 | 1.02e+07 |

target: T1, KIX domain of CBP; assay: dissociation kinetics by competition; FITC-pKID displaced from KIX by unlabeled competitor cMybTAD; kdiss = asymptote of the observed dissociation rate against competitor concentration; details: both partners purified; remark: another data set of the same source

| Molecule | koff [s⁻¹] |
| --- | --- |
| B13 | 56.7 |
| B14 | 0.81 |
| B15 | 7.66 |
| B16 | 43.9 |
| B17 | 15.7 |
| B18 | 0.51 |
| B19 | 13.2 |
| B20 | 0.71 |
| B21 | 2.17 |
| B22 | 0.83 |
| B23 | 2.06 |

target: T1, KIX domain of CBP; assay: fluorescence polarisation; equilibrium fluorescence anisotropy; KIX titrated into N-terminally FITC-labelled pKID peptide; biophysical buffer and conditions as in the accompanying article (ref. 42); KdEqub; details: both partners purified

| Molecule | Kd [nM] |
| --- | --- |
| B13 | 28700 |
| B14 | 110 |
| B15 | 1230 |
| B16 | 21600 |
| B17 | 2490 |
| B18 | 60 |
| B19 | 6300 |
| B20 | 120 |
| B21 | 220 |
| B24 | 111000 |
| B22 | 120 |
| B23 | 260 |

target: T1, KIX domain of CBP; assay: as above; details: both partners purified; remark: another data set of the same source

| Molecule | Kd [nM] |
| --- | --- |
| B1 | 100 |
| B2 | 1160 |
| B3 | 70 |
| B4 | 440 |
| B5 | 80 |
| B6 | 170 |
| B7 | 70 |
| B8 | 2160 |
| B9 | 150 |
| B10 | 250 |
| B11 | 90 |
| B12 | 100 |

target: T2, KIX domain of CBP (UniProt P45481 586-666); assay: fluorescence polarisation; equilibrium fluorescence anisotropy of N-terminally FITC-labelled pKID peptides with KIX; buffer and conditions as in the accompanying article (ref. 42); details: both partners purified
T2 construct: PDB 1KDX is the cited pKID/KIX structure and need not have the same limits
T2 sequence (P45481 586-666): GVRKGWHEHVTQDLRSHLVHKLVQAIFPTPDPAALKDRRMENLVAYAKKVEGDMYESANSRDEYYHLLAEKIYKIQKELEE

| Molecule | fold increase of Kd against wild type [fold] |
| --- | --- |
| B25 | ~100 |
| B26 | ~1000 |
| B27 | > 10 |
| B28 | > 10 |

target: KIX domain of CBP KIX domain (UniProt P45481); assay: fluorescence anisotropy and stopped-flow kinetics; details: reference: unphosphorylated KID peptide (Ser133); sites S133
Sequence (P45481 whole entry, looked up, the tested form may be a part): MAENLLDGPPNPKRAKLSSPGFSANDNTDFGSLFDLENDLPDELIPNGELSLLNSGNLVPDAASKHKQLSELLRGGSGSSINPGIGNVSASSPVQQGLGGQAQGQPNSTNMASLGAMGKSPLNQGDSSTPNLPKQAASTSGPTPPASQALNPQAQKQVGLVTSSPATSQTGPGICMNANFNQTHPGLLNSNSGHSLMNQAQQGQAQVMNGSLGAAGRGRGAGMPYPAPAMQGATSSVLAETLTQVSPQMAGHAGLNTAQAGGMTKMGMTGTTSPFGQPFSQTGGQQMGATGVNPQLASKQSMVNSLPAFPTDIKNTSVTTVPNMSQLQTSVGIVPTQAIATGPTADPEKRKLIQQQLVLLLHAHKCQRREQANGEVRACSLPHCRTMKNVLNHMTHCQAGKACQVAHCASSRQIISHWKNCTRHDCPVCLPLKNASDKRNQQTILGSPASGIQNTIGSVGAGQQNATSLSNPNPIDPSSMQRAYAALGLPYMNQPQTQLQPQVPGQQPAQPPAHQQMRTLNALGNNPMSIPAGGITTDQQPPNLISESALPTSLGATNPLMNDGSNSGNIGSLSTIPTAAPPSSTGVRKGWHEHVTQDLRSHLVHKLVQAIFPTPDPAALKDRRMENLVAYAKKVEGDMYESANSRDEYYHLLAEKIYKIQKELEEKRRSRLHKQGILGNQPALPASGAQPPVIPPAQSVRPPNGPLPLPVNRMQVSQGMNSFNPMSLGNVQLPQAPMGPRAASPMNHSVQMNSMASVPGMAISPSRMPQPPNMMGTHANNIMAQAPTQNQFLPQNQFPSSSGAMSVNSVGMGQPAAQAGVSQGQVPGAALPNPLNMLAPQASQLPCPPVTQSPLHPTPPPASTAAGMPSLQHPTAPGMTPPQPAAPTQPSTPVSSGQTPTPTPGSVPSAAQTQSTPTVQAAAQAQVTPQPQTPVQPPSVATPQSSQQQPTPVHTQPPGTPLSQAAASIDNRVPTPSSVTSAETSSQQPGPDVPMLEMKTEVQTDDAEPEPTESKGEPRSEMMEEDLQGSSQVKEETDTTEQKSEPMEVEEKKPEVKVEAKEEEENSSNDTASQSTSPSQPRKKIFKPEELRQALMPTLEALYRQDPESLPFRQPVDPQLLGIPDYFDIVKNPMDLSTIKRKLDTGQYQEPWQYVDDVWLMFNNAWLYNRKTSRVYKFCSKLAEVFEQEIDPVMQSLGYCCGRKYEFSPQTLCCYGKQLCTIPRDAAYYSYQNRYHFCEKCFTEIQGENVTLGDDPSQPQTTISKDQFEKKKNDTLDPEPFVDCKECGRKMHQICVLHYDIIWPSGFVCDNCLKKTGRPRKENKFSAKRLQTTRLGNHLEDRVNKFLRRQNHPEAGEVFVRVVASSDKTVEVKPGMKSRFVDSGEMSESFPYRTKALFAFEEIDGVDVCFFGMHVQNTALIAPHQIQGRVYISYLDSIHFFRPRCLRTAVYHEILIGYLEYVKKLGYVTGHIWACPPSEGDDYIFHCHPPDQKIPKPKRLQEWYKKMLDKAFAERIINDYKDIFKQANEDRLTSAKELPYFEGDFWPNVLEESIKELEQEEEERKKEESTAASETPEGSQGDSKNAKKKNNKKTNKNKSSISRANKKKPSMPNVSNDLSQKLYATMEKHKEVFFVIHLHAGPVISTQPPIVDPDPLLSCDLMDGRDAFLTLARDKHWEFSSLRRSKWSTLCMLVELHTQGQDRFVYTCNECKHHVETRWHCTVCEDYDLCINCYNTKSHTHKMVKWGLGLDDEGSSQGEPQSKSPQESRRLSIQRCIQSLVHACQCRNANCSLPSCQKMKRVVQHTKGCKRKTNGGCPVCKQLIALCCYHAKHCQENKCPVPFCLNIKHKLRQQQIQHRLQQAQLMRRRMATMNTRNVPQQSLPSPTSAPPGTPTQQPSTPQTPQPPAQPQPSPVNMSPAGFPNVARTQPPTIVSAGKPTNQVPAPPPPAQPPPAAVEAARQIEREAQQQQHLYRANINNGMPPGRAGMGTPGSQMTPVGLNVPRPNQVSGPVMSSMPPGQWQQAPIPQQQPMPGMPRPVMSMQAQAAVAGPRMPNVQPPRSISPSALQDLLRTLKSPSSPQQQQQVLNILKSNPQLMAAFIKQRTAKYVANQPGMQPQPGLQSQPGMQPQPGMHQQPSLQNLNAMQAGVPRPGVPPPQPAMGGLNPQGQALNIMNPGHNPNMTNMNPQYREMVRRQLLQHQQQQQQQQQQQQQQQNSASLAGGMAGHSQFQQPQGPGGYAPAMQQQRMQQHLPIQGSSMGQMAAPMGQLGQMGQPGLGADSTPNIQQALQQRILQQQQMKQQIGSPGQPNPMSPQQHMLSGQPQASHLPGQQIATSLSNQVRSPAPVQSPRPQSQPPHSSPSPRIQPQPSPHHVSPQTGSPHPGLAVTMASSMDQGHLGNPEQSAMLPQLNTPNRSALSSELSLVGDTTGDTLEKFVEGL

| Molecule | binding against the reference |
| --- | --- |
| CREB (KID / pKID region) 116-146 (from UniProt P15337-1) pSer133 pKID peptide | stronger |

From article PMC5770965, “pKID Binds to KIX via an Unstructured Transition State with Nonnative Interactions” (Biophysical Journal, 2017)
